Patent publication US20060140858A1, “Drug pre-targeting by means of bi-specific antibodies and hapten constructs comprising a carrier peptide and the active agent(s)” (Immunomedics, Inc., priority 2002, published 2006)

Test: Biodistribution of In-111 IMP 224 in BALB/c mice
Format: in vivo
Protocol: Kits were reconstituted with 400 μCi In-111 in 0.5 mL water.

## COc1cccc2c1C(=O)c1c(O)c3c(c(O)c1C2=O)C[C@@](O)(C(CO)=NNc1ccc(C(=O)N[C@@H](CCCCNC(=O)CN(CCN(CCN(CC(=O)O)CC(=O)O)CC(=O)O)CC(=O)O)C(=O)N[C@@H](Cc2ccc(O)cc2)C(=O)N[C@@H](CCCCNC(=O)CN(CCN(CCN(CC(=O)O)CC(=O)O)CC(=O)O)CC(=O)O)C(N)=O)cc1)C[C@@H]3O[C@H]1C[C@H](N)[C@H](O)[C@H](C)O1 [IMP 224, Dox = N—NH—C6H4—CO-Lys(DTPA)-Tyr-Lys(DTPA)-NH2]
BALB/c, mouse, 20 uCi, total radioactivity, Blood, 30 min
  tissue uptake at 0.5 h: 1.44 ± 0.28 %ID/g
BALB/c, mouse, 20 uCi, total radioactivity, Blood, 1 hr
  tissue uptake at 1 h: 0.54 ± 0.12 %ID/g
BALB/c, mouse, 20 uCi, total radioactivity, Blood, 2 hr
  tissue uptake at 2 h: 0.12 ± 0.01 %ID/g
BALB/c, mouse, 20 uCi, total radioactivity, Blood, 4 hr
  tissue uptake at 4 h: 0.1 ± 0.01 %ID/g
BALB/c, mouse, 20 uCi, total radioactivity, Blood, 24 hr
  tissue uptake at 24 h: 0.02 %ID/g
BALB/c, mouse, 20 uCi, total radioactivity, Kidney, 30 min
  tissue uptake at 0.5 h: 8.45 ± 1.79 %ID/g
BALB/c, mouse, 20 uCi, total radioactivity, Kidney, 1 hr
  tissue uptake at 1 h: 5.36 ± 1.01 %ID/g
BALB/c, mouse, 20 uCi, total radioactivity, Kidney, 2 hr
  tissue uptake at 2 h: 3.75 ± 0.52 %ID/g
BALB/c, mouse, 20 uCi, total radioactivity, Kidney, 4 hr
  tissue uptake at 4 h: 4.03 ± 0.45 %ID/g
BALB/c, mouse, 20 uCi, total radioactivity, Kidney, 24 hr
  tissue uptake at 24 h: 2.12 ± 0.17 %ID/g
BALB/c, mouse, 20 uCi, total radioactivity, Liver, 30 min
  tissue uptake at 0.5 h: 0.57 ± 0.04 %ID/g
BALB/c, mouse, 20 uCi, total radioactivity, Liver, 1 hr
  tissue uptake at 1 h: 0.31 ± 0.03 %ID/g
BALB/c, mouse, 20 uCi, total radioactivity, Liver, 2 hr
  tissue uptake at 2 h: 0.17 ± 0.03 %ID/g
BALB/c, mouse, 20 uCi, total radioactivity, Liver, 4 hr
  tissue uptake at 4 h: 0.17 ± 0.01 %ID/g
BALB/c, mouse, 20 uCi, total radioactivity, Liver, 24 hr
  tissue uptake at 24 h: 0.13 ± 0.02 %ID/g
BALB/c, mouse, 20 uCi, total radioactivity, Lungs, 30 min
  tissue uptake at 0.5 h: 1.61 ± 0.34 %ID/g
BALB/c, mouse, 20 uCi, total radioactivity, Lungs, 1 hr
  tissue uptake at 1 h: 0.99 ± 0.26 %ID/g
BALB/c, mouse, 20 uCi, total radioactivity, Lungs, 2 hr
  tissue uptake at 2 h: 0.25 ± 0.02 %ID/g
BALB/c, mouse, 20 uCi, total radioactivity, Lungs, 4 hr
  tissue uptake at 4 h: 0.17 ± 0.02 %ID/g
BALB/c, mouse, 20 uCi, total radioactivity, Lungs, 24 hr
  tissue uptake at 24 h: 0.09 ± 0.02 %ID/g
BALB/c, mouse, 20 uCi, total radioactivity, Muscle, 30 min
  tissue uptake at 0.5 h: 0.51 ± 0.19 %ID/g
BALB/c, mouse, 20 uCi, total radioactivity, Muscle, 1 hr
  tissue uptake at 1 h: 0.21 ± 0.08 %ID/g
BALB/c, mouse, 20 uCi, total radioactivity, Muscle, 2 hr
  tissue uptake at 2 h: 0.03 ± 0.02 %ID/g
BALB/c, mouse, 20 uCi, total radioactivity, Muscle, 4 hr
  tissue uptake at 4 h: 0.02 %ID/g
BALB/c, mouse, 20 uCi, total radioactivity, Muscle, 24 hr
  tissue uptake at 24 h: 0.01 %ID/g
BALB/c, mouse, 20 uCi, total radioactivity, Spleen, 30 min
  tissue uptake at 0.5 h: 0.57 ± 0.18 %ID/g
BALB/c, mouse, 20 uCi, total radioactivity, Spleen, 1 hr
  tissue uptake at 1 h: 0.27 ± 0.06 %ID/g
BALB/c, mouse, 20 uCi, total radioactivity, Spleen, 2 hr
  tissue uptake at 2 h: 0.12 ± 0.01 %ID/g
BALB/c, mouse, 20 uCi, total radioactivity, Spleen, 4 hr
  tissue uptake at 4 h: 0.11 ± 0.01 %ID/g
BALB/c, mouse, 20 uCi, total radioactivity, Spleen, 24 hr
  tissue uptake at 24 h: 0.07 %ID/g
BALB/c, mouse, 20 uCi, total radioactivity, Stomach, 30 min
  tissue uptake at 0.5 h: 0.61 ± 0.07 %ID/g
BALB/c, mouse, 20 uCi, total radioactivity, Stomach, 1 hr
  tissue uptake at 1 h: 0.15 ± 0.07 %ID/g
BALB/c, mouse, 20 uCi, total radioactivity, Stomach, 2 hr
  tissue uptake at 2 h: 0.05 ± 0.01 %ID/g
BALB/c, mouse, 20 uCi, total radioactivity, Stomach, 4 hr
  tissue uptake at 4 h: 0.06 ± 0.02 %ID/g
BALB/c, mouse, 20 uCi, total radioactivity, Stomach, 24 hr
  tissue uptake at 24 h: 0.04 ± 0.02 %ID/g
BALB/c, mouse, 20 uCi, total radioactivity, Tail, 30 min
  tissue uptake at 0.5 h: 3.66 ± 0.43 %ID/g
BALB/c, mouse, 20 uCi, total radioactivity, Tail, 1 hr
  tissue uptake at 1 h: 1.9 ± 0.09 %ID/g
BALB/c, mouse, 20 uCi, total radioactivity, Tail, 2 hr
  tissue uptake at 2 h: 0.46 ± 0.09 %ID/g
BALB/c, mouse, 20 uCi, total radioactivity, Tail, 4 hr
  tissue uptake at 4 h: 0.24 ± 0.03 %ID/g
BALB/c, mouse, 20 uCi, total radioactivity, Tail, 24 hr
  tissue uptake at 24 h: 0.58 ± 0.22 %ID/g
BALB/c, mouse, 20 uCi, total radioactivity, Urine, 2 hr
  excreta dose per gram or mL at 2 h: 19.1 %ID/g
BALB/c, mouse, 20 uCi, total radioactivity, Urine, 4 hr
  excreta dose per gram or mL at 4 h: 1.72 ± 0.67 %ID/g
BALB/c, mouse, 20 uCi, total radioactivity, Urine, 24 hr
  excreta dose per gram or mL at 24 h: 0.42 ± 0.18 %ID/g
BALB/c, mouse, large intestine, 20 uCi, total radioactivity, Large Int., 30 min
  tissue uptake at 0.5 h: 0.59 ± 0.43 %ID/g
BALB/c, mouse, large intestine, 20 uCi, total radioactivity, Large Int., 1 hr
  tissue uptake at 1 h: 0.18 ± 0.04 %ID/g
BALB/c, mouse, large intestine, 20 uCi, total radioactivity, Large Int., 2 hr
  tissue uptake at 2 h: 0.38 ± 0.15 %ID/g
BALB/c, mouse, large intestine, 20 uCi, total radioactivity, Large Int., 4 hr
  tissue uptake at 4 h: 0.3 ± 0.06 %ID/g
BALB/c, mouse, large intestine, 20 uCi, total radioactivity, Large Int., 24 hr
  tissue uptake at 24 h: 0.08 ± 0.03 %ID/g
BALB/c, mouse, small intestine, 20 uCi, total radioactivity, Small Int., 30 min
  tissue uptake at 0.5 h: 0.72 ± 0.08 %ID/g
BALB/c, mouse, small intestine, 20 uCi, total radioactivity, Small Int., 1 hr
  tissue uptake at 1 h: 0.37 ± 0.19 %ID/g
BALB/c, mouse, small intestine, 20 uCi, total radioactivity, Small Int., 2 hr
  tissue uptake at 2 h: 0.09 ± 0.01 %ID/g
BALB/c, mouse, small intestine, 20 uCi, total radioactivity, Small Int., 4 hr
  tissue uptake at 4 h: 0.09 ± 0.03 %ID/g
BALB/c, mouse, small intestine, 20 uCi, total radioactivity, Small Int., 24 hr
  tissue uptake at 24 h: 0.05 ± 0.01 %ID/g
Urine, 30 min
  % ID/g: 1553 % ID/g
Urine, 1 hr
  % ID/g: 1400 ± 421 % ID/g
